This data set concerns the molecule itself. In words: native gel or EMSA; purified hCLE-CBD, dialyzed, non-denaturing gel, Western blot against hCLE. In general terms: Mobility shift assays separate free from complexed probe on a gel.

B1: hCLE-TAP tagged protein, purified as hCLE-CBD (natural protein, human, UniProt Q9Y224 1-244, looked up)
chain: MFRRKLTALDYHNPAGFNCKDETEFRNFIVWLEDQKIRHYKIEDRGNLRNIHSSDWPKFFEKYLRDVNCPFKIQDRQEAIDWLLGLAVRLEYGDNAEKYKDLVPDNSKTADNATKNAEPLINLDVNNPDFKAGVMALANLLQIQRHDDYLVMLKAIRILVQERLTQDAVAKANQTKEGLPVALDKHILGFDTGDAVLNEAAQILRLLHIEELRELQTKINEAIVAVQAIIADPKTDHRLGKVGR
notes: hCLE/C14orf166, human; In the cells the protein carries the whole TAP tag (hCLE-TAP); after the TEV step of the purification it is hCLE-CBD; also called hCLE/C14orf166; protein C14orf166 (CLE); source: HEK293T, transfected with pChCLE-TAP; TAP purified (IgG-Sepharose, Calmodulin-Agarose) from total, nuclear or cytosolic extracts
For the protein B1, the “stoichiometry N” value was 2.

For orientation: stoichiometry N means the number of molecules, sites or subunits per partner or assembly.

For the origin of these results see paper PMC3946611, “hCLE/C14orf166 Associates with DDX1-HSPC117-FAM98B in a Novel Transcription-Dependent Shuttling RNA-Transporting Complex” (PLoS ONE, 2014).
